This note sets out measurements from the Immune Epitope Database (IEDB).

One assay addresses HLA-A*29:02. Nature of the assay: IEDB peptide-MHC binding, purified MHC/direct/fluorescence; filed as Kd, often an IC50 or EC50 that approximates it; ≥ and ≤ were set here for values at or beyond the usual limits of such assays.
In a further assay the target is HLA-B*40:01. The assay is described as above.
The target of a further assay is HLA-B*07:02. The assay is described as above.
For a further assay, the target named is HLA-B*44:02. The assay is described as above.
Assay [1] deals with HLA-B*51:01. The description is as above. The following applies: source organism: Francisella tularensis subsp. tularensis FSC033.
Another assay addresses HLA-A*02:01. The description is as above.
A further assay deals with HLA-B*58:01. The assay is described as above.
In assay [2] the target is HLA-A*69:01. The assay is described as above.
In assay [3] the target is HLA-A*02:50. Described as above. Particulars: source organism: Francisella tularensis subsp. tularensis FSC033.
The target in the next assay is HLA-A*30:01. Described as above. The following applies: source organism: Francisella tularensis subsp. tularensis FSC033.
In another assay the target is HLA-A*01:01. The description is as above.
For assay [4], the target named is HLA-B*57:01. The assay is described as above. The following applies: source organism: Francisella tularensis subsp. tularensis FSC033.
The target of assay [5] is HLA-B*15:01. The assay is described as above.
For assay [6], the target named is HLA-B*18:01. The description is as above. Particulars: source organism: Francisella tularensis subsp. tularensis FSC033.
The next assay addresses HLA-A*25:01. Nature of the assay: IEDB peptide-MHC binding, purified MHC/competitive/fluorescence; filed as Kd, often an IC50 or EC50 that approximates it; ≥ and ≤ were set here for values at or beyond the usual limits of such assays. The following applies: source organism: Zaire ebolavirus.
In a further assay the target is HLA-A*26:01. The description is as above. The following applies: source organism: Zaire ebolavirus.
The next assay concerns the target HLA-B*27:03. The assay is described as above. Particulars: source organism: Zaire ebolavirus.
The target of assay [7] is HLA-B*51:01. The assay is described as above. The following applies: source organism: Zaire ebolavirus.
The next assay has as its target HLA-B*46:01. Described as above. The following applies: source organism: Zaire ebolavirus.
In assay [8] the target is HLA-A*69:01. The assay is described as above. The following applies: source organism: Zaire ebolavirus.
In another assay the target is HLA-B*39:01. The assay is described as above. The following applies: source organism: Zaire ebolavirus.
For a further assay, the target named is HLA-A*80:01. The description is as above. Particulars: source organism: Zaire ebolavirus.
Assay [9] deals with HLA-B*57:01. Described as above. The following applies: source organism: Zaire ebolavirus.
Assay [10] addresses HLA-B*15:01. The description is as above. Particulars: source organism: Zaire ebolavirus.
Assay [11] concerns the target HLA-B*18:01. The description is as above. Particulars: source organism: Zaire ebolavirus.
A further assay addresses HLA-A*03:01. Kind of assay: IEDB peptide-MHC binding, purified MHC/direct/fluorescence; filed as Kd, often an IC50 or EC50 that approximates it; ≥ and ≤ were set here for values at or beyond the usual limits of such assays.
The target of a further assay is HLA-A*02:11. The assay is described as above.
A further assay deals with HLA-A*68:02. Described as above. Particulars: source organism: Zaire ebolavirus.
The target in assay [12] is HLA-A*02:50. Nature of the assay: IEDB peptide-MHC binding, purified MHC/competitive/fluorescence; filed as Kd, often an IC50 or EC50 that approximates it; ≥ and ≤ were set here for values at or beyond the usual limits of such assays. The following applies: source organism: Coxiella burnetii RSA 493.
For another assay, the target named is HLA-A*02:06. Kind of assay: IEDB peptide-MHC binding, purified MHC/direct/fluorescence; filed as Kd, often an IC50 or EC50 that approximates it; ≥ and ≤ were set here for values at or beyond the usual limits of such assays. Particulars: source organism: Coxiella burnetii Q321.
The next assay concerns the target HLA-A*11:01. The description is as above. Particulars: source organism: Coxiella burnetii.
The next assay has as its target HLA-A*02:12. Described as above. Particulars: source organism: Coxiella burnetii Q321.
The target in the next assay is HLA-A*24:02. Described as above. The following applies: source organism: Coxiella burnetii.
A further assay addresses HLA-B*27:05. Described as above. The following applies: source organism: Coxiella burnetii.
The next assay deals with HLA-A*02:03. The description is as above. The following applies: source organism: Coxiella burnetii Q321.
In the next assay the target is HLA-C*08:02. Described as above. Particulars: source organism: Coxiella burnetii RSA 493.
The next assay deals with HLA-C*12:03. The description is as above. The following applies: source organism: Coxiella burnetii RSA 493.
For a further assay, the target named is HLA-A*02:19. The description is as above. The following applies: source organism: Coxiella burnetii Q321.
Where [13] appears, read: source organism: Francisella tularensis subsp. tularensis FSC033.
Setting [14] is: source organism: Francisella tularensis subsp. holarctica OSU18.
The mark [15] stands for this setting: source organism: Zaire ebolavirus.
Setting [16] is: source organism: Coxiella burnetii.

For ETLDVFGPI, the dissociation constant Kd (commonly the constant that tells how readily two partners part at equilibrium) in the assay with HLA-A*29:02 (setting [13]) was no less than 20 µM; with HLA-B*40:01 (setting [13]), no less than 20 µM; with HLA-B*07:02 (setting [13]), no less than 20 µM; in the assay with HLA-B*44:02 (setting [13]), no less than 20 µM; with HLA-B*51:01 [1], no less than 20 µM; with HLA-A*02:01 (setting [14]), no less than 20000 nM. The Kd with HLA-B*58:01 (setting [13]) was no less than 20 µM; with HLA-A*69:01 [2] (setting [14]), 0.4 nM; in the assay with HLA-A*02:50 [3], no less than 20 µM; with HLA-A*30:01, no less than 20 µM; in the assay with HLA-A*01:01 (setting [13]), no less than 20 µM; with HLA-B*57:01 [4], no less than 20 µM. Further, the Kd in the assay with HLA-B*15:01 [5] (setting [13]) is no less than 20000 nM; with HLA-B*18:01 [6], no less than 20 µM.
Consider SLTDRELLL, for which the dissociation constant Kd with HLA-A*25:01, with HLA-A*26:01, with HLA-B*27:03, with HLA-B*51:01 [7], in the assay with HLA-B*46:01 and with HLA-A*69:01 [8] was no less than 20 µM in each case. Moreover, the Kd with HLA-B*39:01, with HLA-A*80:01, with HLA-B*57:01 [9], with HLA-B*15:01 [10], with HLA-B*18:01 [11] and in the assay with HLA-A*29:02 (setting [15]) was no less than 20 µM throughout. Further, the dissociation constant (Kd) is no less than 20 µM with HLA-A*03:01 (setting [15]), 1.3 nM in the assay with HLA-A*02:01 (source organism: Sudan ebolavirus - Uganda (2000)), no less than 20000 nM with HLA-A*02:11 (setting [15]) and no less than 20 µM in the assay with HLA-A*68:02.
As for YMHGSIHEV, the Kd in the assay with HLA-A*02:50 [12] is no more than 0.1 nM; with HLA-A*03:01 (setting [16]), no less than 20 µM; in the assay with HLA-B*40:01 (setting [16]), no less than 20 µM; with HLA-B*07:02 (setting [16]), no less than 20 µM; in the assay with HLA-B*44:02 (setting [16]), no less than 20 µM; with HLA-A*02:06, 2 nM. In addition, the Kd was no less than 20 µM with HLA-A*11:01; 7 nM in the assay with HLA-A*02:12; 57 nM with HLA-A*02:01 (setting [16]); no less than 20 µM in the assay with HLA-A*24:02; no less than 20 µM with HLA-B*58:01 (setting [16]); 40.7 nM with HLA-A*69:01 [2] (setting [16]). Further, the Kd was no less than 20 µM with HLA-B*27:05; 2 nM in the assay with HLA-A*02:03; 2 nM in the assay with HLA-A*02:11 (source organism: Coxiella burnetii Q321); no less than 20 µM in the assay with HLA-C*08:02; no less than 20 µM with HLA-A*01:01 (setting [16]); 26 nM with HLA-C*12:03. Besides, the results for the Kd with HLA-A*02:19 and with HLA-B*15:01 [5] (setting [16]) were 7 nM and 118 nM, respectively.
